Source: patent US20220151976A1 (UNIVERSITY OF TOLEDO, published 2022)

Key:
[1] = target: T1, Eukaryotic initiation factor 4A (eIF4A1), endogenous in 231S cells (human, UniProt P60842 2-406); assay: proximity ligation assay in 231S cells, CXCL12 5 min against unstimulated
T1 construct: Endogenous intracellular protein; eIF4A1 antibody (Cohesion CQA1180) used in PLA and IP, eIF4A C32B4 in Western blots
Description: 100 nM AMD3465 was added 30 min prior to stimulation. […] Representative images of the PLA experiment are provided. Quantification indicates the average number of interactions/cell across multiple independent fields.

[2] = target: eIF4E, endogenous in 231S cells (human) (UniProt P06730); assay: m7GTP pulldown from 231S lysate after CXCL12, LASP1/eIF4E densitometry against 0 min; association may be through the complex
eIF4E, endogenous in 231S cells (human), sequence (P06730 2-217 limits assumed): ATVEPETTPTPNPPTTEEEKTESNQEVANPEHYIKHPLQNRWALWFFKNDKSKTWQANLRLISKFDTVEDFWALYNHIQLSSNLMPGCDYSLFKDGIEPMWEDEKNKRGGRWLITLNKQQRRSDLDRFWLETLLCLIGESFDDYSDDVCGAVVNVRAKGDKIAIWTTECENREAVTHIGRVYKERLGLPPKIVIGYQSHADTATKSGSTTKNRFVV

[3] = target: T2, Eukaryotic initiation factor 4B (eIF4B), endogenous in 231S cells (human, UniProt P23588 1-611); assay: reciprocal co-immunoprecipitation (LASP1 IP, eIF4B blot) from 231S lysate, densitometry against 0 min
T2 construct: Endogenous protein in lysate
T2 sequence (P23588 whole entry): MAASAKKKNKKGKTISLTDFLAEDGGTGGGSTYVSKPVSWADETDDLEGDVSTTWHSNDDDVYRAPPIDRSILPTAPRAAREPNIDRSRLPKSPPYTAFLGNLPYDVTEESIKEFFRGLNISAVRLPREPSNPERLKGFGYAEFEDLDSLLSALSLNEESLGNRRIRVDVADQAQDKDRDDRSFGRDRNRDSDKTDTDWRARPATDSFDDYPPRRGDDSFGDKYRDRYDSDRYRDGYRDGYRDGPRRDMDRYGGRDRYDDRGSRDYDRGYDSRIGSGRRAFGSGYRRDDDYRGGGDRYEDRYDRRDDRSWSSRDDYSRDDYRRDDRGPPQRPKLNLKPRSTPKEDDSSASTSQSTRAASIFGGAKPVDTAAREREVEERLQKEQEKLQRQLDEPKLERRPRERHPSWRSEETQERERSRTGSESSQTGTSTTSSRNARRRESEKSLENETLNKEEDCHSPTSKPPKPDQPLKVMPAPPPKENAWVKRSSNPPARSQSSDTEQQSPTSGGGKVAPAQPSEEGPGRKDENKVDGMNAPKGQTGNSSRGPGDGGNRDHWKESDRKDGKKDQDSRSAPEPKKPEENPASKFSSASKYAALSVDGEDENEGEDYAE
Description: (§1) 1 mg of total protein lysate was employed in all immunoprecipitation reactions. eIF4B was immunoprecipitated by using 2 μg of eIF4B antibody (Cell Signaling Technology, Danvers, Mass., Cat. No. 13088). Mouse (G3A1) mAb IgG1 Isotype Control (Cell Signaling Technology, Danvers, Mass., Cat. No. 5415) served as the mock control. Next, eIF4A was immunoprecipitated using 2 μg of eIF4A1 antibody (Cohesion Biosciences, London, Purley, Cat. No. CQA1180). His-Tag (D3L10) XP® Rabbit mAb (Cell Signaling Technology, Danvers, Mass., Cat. No. 12698) was employed for the mock condition. […] As in the eIF4B Co-IP, mouse (G3A1) IgG1 isotype mAb was employed as the mock control. Prior to immunoprecipitation, lysates were pre-cleared with 20 μL of PureProteome™ Protein G Magnetic Beads (Millipore, Billerica, Mass., Cat. No. LSKMAGG10) for 2 H at 4° C. Immunoprecipitation reactions were then allowed to proceed with 20 μL of protein G magnetic beads and the appropriate amount of antibody for 2 h at 4° C. Beads were washed thrice with Co-IP buffer. To avoid heavy chain contamination (55 kDa) in the eIF4A Co-IP, antibodies were cross-linked using BS³ (according to Millipore recommendations). Proteins of interest were analyzed by sodium dodecyl sulfate-polyacrylamide gel electrophoresis (SDS-PAGE) and Western blotting.

[4] = target: T1, Eukaryotic initiation factor 4A …; assay: reciprocal co-immunoprecipitation (LASP1 IP, eIF4A blot) from 231S lysate, densitometry against 0 min
Description: as §1

T1 sequence (P60842 2-406 limits assumed): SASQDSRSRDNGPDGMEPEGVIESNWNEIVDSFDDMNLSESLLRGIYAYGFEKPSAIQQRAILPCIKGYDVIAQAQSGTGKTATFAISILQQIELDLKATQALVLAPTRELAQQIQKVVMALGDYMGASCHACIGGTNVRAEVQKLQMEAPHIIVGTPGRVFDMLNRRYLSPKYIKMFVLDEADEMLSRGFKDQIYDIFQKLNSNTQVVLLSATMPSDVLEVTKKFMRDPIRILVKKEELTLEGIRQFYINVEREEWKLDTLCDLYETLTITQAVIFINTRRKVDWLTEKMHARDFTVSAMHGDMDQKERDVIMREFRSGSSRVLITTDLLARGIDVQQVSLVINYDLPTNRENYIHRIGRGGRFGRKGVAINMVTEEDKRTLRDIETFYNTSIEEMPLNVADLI

B1: LIM and SH3 Protein 1 (LASP1), endogenous in 231S cells (other, human, UniProt Q14847 1-261, looked up)
chain: MNPNCARCGKIVYPTEKVNCLDKFWHKACFHCETCKMTLNMKNYKGYEKKPYCNAHYPKQSFTMVADTPENLRLKQQSELQSQVRYKEEFEKNKGKGFSVVADTPELQRIKKTQDQISNIKYHEEFEKSRMGPSGGEGMEPERRDSQDGSSYRRPLEQQQPHHIPTSAPVYQQPQQQPVAQSYGGYKEPAAPVSIQRSAPGGGGKRYRAVYDYSAADEDEVSFQDGDTIVNVQQIDDGWMYGTVERTGDTGMLPANYVEAI
notes: Endogenous intracellular protein; detected or immunoprecipitated with mouse LASP1 antibody 8C6 (Biolegend 909301); also called endogenous LASP1
- fold stimulation of the interaction [1]: 3 fold
- fold increase in association [2]: 2.2 fold
- fold increase in association [3]: 7.5 fold
- fold increase in association [4]: 19.1 fold
